Measured values taken from patent publication US20250027945A1 (University of California, published 2025).

Experiments:
[1] = target: T1, human RYK on the surface of human tumor cell lines (human, UniProt P34925 46-607); assay: flow cytometry, SKBR3 cells (breast), 5 ug/ml 2-D11-Alexa647
T1 construct: whole, on cells; Endogenous expression
Description: (§1) Table 1 provides the flow cytometry data on various cancer cell lines stained with fluorochrome-conjugated 2-D11, as depicted in FIG. 8. The name of each cell line is listed in the first column and the tissue of origin is listed in the second column. Binding of the 2-D11 mAb to human RYK was assessed by flow cytometric staining and analysis by staining on ice for 20 minutes with 5 μg/ml of 2-D11 anti-human RYK-Alexa647 conjugated mAb or equal amounts of isotype matched control mAb, washed, and analyzed. The median fluorescence intensity (MFI) of 2-D11 stained cells is listed in the middle column and the MFI of isotype control stained cells are listed in the in the adjacent column. Cell lines were scored as “++”, “+”, or neg (unmarked with “+”) lines based on the ratio of median fluorescence intensity (MFI) of stained cells relative to the MFI of isotype control stained cells (MFIR).
(§2) The name of each cell line is listed in the first column and the tissue of origin is listed in the second column. Binding of the 2-D11 mAb to human RYK was assessed by flow cytometric staining and analysis by staining on ice for 20 minutes with 5 μg/ml of 2-D11 anti-human RYK-Alexa647 conjugated mAb or equal amounts of isotype matched control mAb, washed and analyzed. […]

[2] = target: T2, recombinant extracellular protein of mouse RYK (mouse, UniProt Q01887 35-211); assay: immunoblot of recombinant extracellular protein on nylon membrane
T2 construct: also called mRYK; not shown: rabbit IgG tag for purification
Description: FIG. 4A illustrates experiments in which binding of 2-D11, 7-H10, 3-C12, 11-E9, 6-B5, 6-D10 and sheep anti-RYK mAb was assessed using recombinant human RYK proteins (SEQ ID NO:129) in which one amino acid that differs between human and mouse RYK within the extracellular domain was replaced with the corresponding amino acid of mouse RYK. Each recombinant protein was transferred onto nylon membrane, probed with the indicated anti-RYK mAb or Sheep anti-RYK Ab, and detected with an anti-mouse IgG or donkey-anti-sheep antibody conjugated with horse radish peroxidase. […]
The anti-human RYK mAbs, 2-D11 and 7-H10, appear specific for an amino terminal epitope of human Ryk (residues 46-57) that are distinct from those in mouse Ryk (FIG. 3); these mAbs also bind mutant forms of Ryk containing amino acid substitutions in human Ryk at positions that differ from that of the highly homologous mouse Ryk to assimilate mouse Ryk at the site of substitution, with amino acid sequence shown in FIG. 3, as shown by immunoblot analyses of recombinant extracellular proteins of human or mouse or each of the various mutant forms of human Ryk (FIG. 4) For this, the binding of 2-D11, 7-H10, or Sheep anti-RYK mAb was assessed using recombinant extracellular RYK proteins as specified in the Key. […]

[3] = target: T1, human RYK on the surface of human tumor …; assay: flow cytometry, CAPAN-1 cells (pancreas), 5 ug/ml 2-D11-Alexa647
Description: as §1, §2

[4] = target: T1, human RYK on the surface of human tumor …; assay: flow cytometry, H292 cells (lung), 5 ug/ml 2-D11-Alexa647; line unmarked (no staining)
Description: as §1, §2

[5] = target: T1, human RYK on the surface of human tumor …; assay: flow cytometry, MOLT4 cells (T-cell ALL), 5 ug/ml 2-D11-Alexa647; line unmarked (no staining)
Description: as §1, §2

[6] = target: T1, human RYK on the surface of human tumor …; assay: flow cytometry, MDA-MB-231 cells (breast), 5 ug/ml 2-D11-Alexa647; line unmarked (no staining)
Description: as §1, §2

T1 sequence (P34925 46-607 limits assumed, form in doubt): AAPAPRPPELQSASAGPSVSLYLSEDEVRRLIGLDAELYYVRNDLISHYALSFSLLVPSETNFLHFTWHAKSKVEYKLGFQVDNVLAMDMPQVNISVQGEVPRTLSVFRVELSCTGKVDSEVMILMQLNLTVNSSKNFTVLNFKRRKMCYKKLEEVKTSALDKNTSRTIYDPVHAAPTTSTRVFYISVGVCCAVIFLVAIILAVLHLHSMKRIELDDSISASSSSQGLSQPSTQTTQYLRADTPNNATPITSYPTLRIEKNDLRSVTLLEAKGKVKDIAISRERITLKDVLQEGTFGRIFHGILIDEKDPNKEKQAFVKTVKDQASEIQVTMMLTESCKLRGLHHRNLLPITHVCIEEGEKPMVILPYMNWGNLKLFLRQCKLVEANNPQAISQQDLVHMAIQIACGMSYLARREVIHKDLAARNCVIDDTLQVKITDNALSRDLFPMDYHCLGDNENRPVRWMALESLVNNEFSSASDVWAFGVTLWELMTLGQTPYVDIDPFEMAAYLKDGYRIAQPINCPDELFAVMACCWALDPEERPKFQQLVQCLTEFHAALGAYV
T2 sequence (Q01887 35-211): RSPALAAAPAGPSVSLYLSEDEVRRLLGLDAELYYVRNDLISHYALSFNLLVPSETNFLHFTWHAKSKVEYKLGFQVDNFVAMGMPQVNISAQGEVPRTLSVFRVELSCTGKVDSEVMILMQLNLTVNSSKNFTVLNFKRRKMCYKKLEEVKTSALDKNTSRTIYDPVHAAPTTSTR

B1: 2-D11 anti-human RYK mAb (antibody, V domains shown)
VH: QVQLKESGPGLVAPSQSLSITCSVSGFSLNDYGVNWVRQPPGKDLEWLGMIWGDGVTEYNSTLKSRLSISKDNSKSQVFLKMNNLQTEDTARYYCVRQGSGVWFAHWGQGTLVSVSS
VL: DVLVTQTPLSLPVSLGDQASISCRSSQTIVHSNGNTYLEWYLQKPGQSPKLLIYKVSNRFSGVPDRFSGSGSGTDFTLKISRVEAEDLGIYYCFQGSHVPYTFGGGTKLEIK
notes: Mouse hybridoma mAb, kappa light chain, detected with anti-mouse IgG; also called mAb 2-D11; 2-D11 anti-human RYK-Alexa647 conjugated mAb
[1]
  MFIR (MFI ratio to isotype control): 1.6
[2]
  binding result: no binding
[3]
  MFIR (MFI ratio to isotype control): 1.5
[4]
  MFIR (MFI ratio to isotype control): 1.3
[5]
  MFIR (MFI ratio to isotype control): 0.9
[6]
  MFIR (MFI ratio to isotype control): 1.1
